Data as given in patent US6245531.

Tests used:
[1] = target: T1, Endogenous ecdysone receptor of Sch-2 cells (EcR) (Drosophila melanogaster) (UniProt P34021); test: cell_activity; settings: 20-OH ecdysone 2e-6 M, beta-galactosidase reporter
T1 sequence: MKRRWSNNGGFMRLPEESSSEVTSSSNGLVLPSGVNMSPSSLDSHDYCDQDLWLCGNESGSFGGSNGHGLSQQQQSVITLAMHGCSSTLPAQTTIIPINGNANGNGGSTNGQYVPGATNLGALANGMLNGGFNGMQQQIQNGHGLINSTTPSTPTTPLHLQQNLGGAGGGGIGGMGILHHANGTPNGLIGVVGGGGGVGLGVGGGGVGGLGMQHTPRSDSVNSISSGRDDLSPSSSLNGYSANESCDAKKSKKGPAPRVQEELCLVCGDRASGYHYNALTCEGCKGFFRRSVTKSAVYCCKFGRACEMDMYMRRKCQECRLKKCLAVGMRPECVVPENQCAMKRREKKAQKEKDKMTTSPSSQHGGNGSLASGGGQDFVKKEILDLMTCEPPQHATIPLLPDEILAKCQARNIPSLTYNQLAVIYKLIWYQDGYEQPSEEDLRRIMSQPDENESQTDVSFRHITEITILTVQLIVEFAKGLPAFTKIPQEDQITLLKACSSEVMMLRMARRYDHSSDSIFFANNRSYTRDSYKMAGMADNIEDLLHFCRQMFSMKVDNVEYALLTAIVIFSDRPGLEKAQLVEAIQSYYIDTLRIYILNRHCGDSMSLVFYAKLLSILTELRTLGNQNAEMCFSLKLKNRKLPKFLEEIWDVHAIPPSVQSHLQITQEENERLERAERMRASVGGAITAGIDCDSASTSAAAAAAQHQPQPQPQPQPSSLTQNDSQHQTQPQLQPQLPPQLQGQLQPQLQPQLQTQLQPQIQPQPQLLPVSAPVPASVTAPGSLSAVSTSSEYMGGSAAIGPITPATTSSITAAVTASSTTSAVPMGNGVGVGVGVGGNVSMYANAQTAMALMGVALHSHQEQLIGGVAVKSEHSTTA

[2] = target: T2, Ecdysone receptor EcR (878 aa ORF, Table 2) (Drosophila melanogaster) (UniProt P34021); test: pulldown; settings: anti-EcR immunoprecipitation on magnetic beads; 180 mM KCl EcR buffer pH 7.0, poly dI/dC, 25 C; no hormone stated; antibody dependent; scale: fold preference over average vector sequences
T2 sequence: T1 sequence

Sequence: TCGAGAGACAAGGGTTCAATGCACTTGTCCAATG / TCGACATTGGACAAGTGCATTGAACCCTTGTCTC [pEcRE/Adh/betagal reporter, 7 x EcRE upstream of Adh -34+53]
- activity (fold induction by ecdysone) [1]: 2000

Sequence: TCGAGAGACAAGGGTTCAATGCACTTGTCCAATG / TCGACATTGGACAAGTGCATTGAACCCTTGTCTC
- binding signal [2]: 1000
